In patent publication US20240101708A1 (Genentech, published 2024):

T1: recombinant human RNF43 extracellular domain (human, UniProt Q68DV7 24-197)
T1 construct: extracellular domain; also called huRNF43; human RNF43 ECD
T1 sequence (looked up): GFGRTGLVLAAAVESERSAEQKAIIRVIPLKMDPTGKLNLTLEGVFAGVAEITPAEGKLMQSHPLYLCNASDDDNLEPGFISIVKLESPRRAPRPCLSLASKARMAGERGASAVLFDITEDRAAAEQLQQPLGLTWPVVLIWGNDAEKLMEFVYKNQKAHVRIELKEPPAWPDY

B1: RNF43-156 (antibody, V domains shown)
VH: EVQLKESGPGLVQPSQTLSLTCTVSGFSLTDYSVYWVRQPPGKGLEWMGVMWRGGTTAYNSALKSRLSISRDTSKSQVFLKMNSLQTEDTAIYYCTRGGKYDGTYYYGWYFDFWGPGTMVTVSS
VL: DVVLTQSPATLSVTPGERISLSCRASESVDTYLYWYQQKPNESPRLLIKYASQSISGIPSRFSGSGSGTDFTLSINGVELEDLSIYYCQQGNSLPLTFGSGTKLEIK
notes: Rat clone; VH/VL only
B2: RNF43-224 (antibody, V domains shown)
VH: EVQLKESGPGLVQPSQTLSLTCTVSGFSLSDYSVHWVRQPPGKGLEWMGVMWSGGTTAYNSALKSRLSISRDTSKNQVLLEMNSLQTEDTAIYYCTRGGKYDGTYYYGWYFDFWGPGTMVTVSS
VL: DVVLTQSPATLSVTPGERISLSCRASESVDTYLSWYQQKPNESPRLLIKYASQSISGIPSRFSGSGSGTDFTLSINGVELEDLSIYYCQQGNSLPLTFGSGTKLEIK
notes: Rat clone; VH/VL only
B3: RNF43-176 (antibody, V domains shown)
VH: QVQLKESGPGLVQPSQTLSLTCTVSGFSLTSYHVSWVRQPPGKGLEWMGVIWTGGSTAYNSLLKSRLSISRDISKSQVFLKMNSLQTEDTATYYCASQYYGYTSYFDYWGQGVMVTVSS
VL: DIQMTQSPVSLSASPEEIVTITCQASQDIDNWLTWYQQKPGKSPQLLIYSATSLADGIPSRFSGSRSGTQYSLKISRLQIEDTGIYYCLQRYGNPWTFGGGTKLELK
notes: Rat clone; VH/VL only
B4: RNF43-168 (antibody, V domains shown)
VH: QVQLKESGPGLVQPSQTLSLTCTVSGFSLNRYHVSWVRQPPGKGLEWMGVVWTGGSTAYNSLLKSRLSISRDISKSQVFLKMISLQTEDTATYYCVSQYYGYTSYFDYWGQGVMVTVSS
VL: DIQMTQSPASLSASPEEIVTVTCQASQDIDNWLTWYQQKPGKSPQLLIYSATSLADGIPSRFSGSRSGTQYSLKIDRLQVEDTGIYYCLQRYGNPWTFGGGTKLELK
notes: Rat clone; VH/VL only
B5: RNF43-200 (antibody, V domains shown)
VH: QVQLKESGPGLVQPSQTLSLTCTVSGFSLTSYHISWVRQPPGKGLEWMGVIWTGGSTAYNSLLKSRLSISRDISKSQVFLKMNSLQAEDTATYYCAGSYYGYTSYFDYWGQGVMVTVSS
VL: DIQMTQSPASLSASPEEIVTITCQASQDIDNWLAWYQQKPGKSPQLLIYSATRLADGIPSRFSGSRSGIQYSLKINRLQVEDTGIYYCLQRFGNPWTFGGGTKLELK
notes: Rat clone; VH/VL only
B6: RNF43-206 (antibody, V domains shown)
VH: QVQLKESGPGLVQPSQTLSLTCTVSGFSLTSFHISWVRQPPGKGLEWMGIIWTGGSTAYNSLLKSRLSISRDISKSQVFLKMNSLQTEDTATYYCAGSYHGYTSYFDYWGQGVMVTVSS
VL: DIQMTQSPASLSASPEEIVTITCQASQDIDNWLAWYQQQPGKSPQLLIYSATSLADGIPSRFSGSRSGTQYSLKINRLQVEDTGIYYCLQRYSNPWTFGGGTKLELK
notes: Rat clone; VH/VL only
B7: RNF43-126 (antibody, V domains shown)
VH: EVQLQESGPGLVKPSQSLSLTCSVTGFSITSSHRWNWIRKFPGNKLEWMGYINSAGSTNYNPSLKSRISITRDTSKNQFFLQVNSVTTEDTATYYCTRLGLQYRDFDYWGQGVMVTVSS
VL: DIQMTQSPASLSASLGETISIECRASDDIYSNLAWYQQKSGKSPQLLIYAANRLKDGVPSRFSGSGSGTQYSLKISGMQTEDEGDYFCLQASKFPLTFGSGTKLEIK
notes: Rat clone; VH/VL only
B8: RNF43-217 (antibody, V domains shown)
VH: EVQLQESGPGLVKPSQSLSLTCSVTGFSITSSHRWNWIRKFPGNKLEWMGYINSAGSTNYNPSLKSRVSITRDASKNQFFLQVNSVTTEDTATYYCTRLGLQYRDFDYWGQGVMVTVSS
VL: DIQMTQSPASLSASLGETISIECRASDDIYSNLAWYQQKSGKSPQLLIYAANRLKDGVPSRFSGSGSGTQYSLKISGMETEDEGDYFCLQASKFPLTFGSGTKLEIK
notes: Rat clone; VH/VL only
B9: RNF43-170 (antibody, V domains shown)
VH: EVQLVESGGGLVPPGRSLKLSCVASGFTFNDYYMAWVRQAPTKGLEWVASISYEGRRTYYGDSVKGRFTISRDNAKSTLYLQMNSLRSDDTATYYCATHSNYIFDYWGQGVMVTVSS
VL: DIRMTQSPASLSASLGETVNIECLASEDIYSDFAWFQQKPGQSPLLLIYNGNSLQNGVPSRFSGSGSGTQYSLKINSLQSEDVATYFCQQYNNYPPTFGGGTKLELK
notes: Rat clone; VH/VL only
B10: RNF43-179 (antibody, V domains shown)
VH: EVQLVESGGGLVQPGRSLKLSCVASGFTFNDYYMAWVRQAPKKGLEWVASINYEGSRTYYGDSVKGRFTISRDNAKSTLYLQMNSLRSEDTATYYCATHSNYIFDNWGQGVMVTVSS
VL: DIRMTQSPASLSASLGETVNIECLASEDIYSDFAWFQQKPGQSPLLLIYNGNNLQNGVPSRFSGSGSGTQYSLKINSLQSEDVATYFCQQYNNYPPTFGGGTKLELK
notes: Rat clone; VH/VL only
B11: RNF43-221 (antibody, V domains shown)
VH: EVQLVESGGGLVQPGRSLKLSCTASGFTLSDYAMAWVRQAPEKGLEWVATISYDGSRTYYGGSVKGRFTISRDNAENILYLQMDSLRSADTATYYCANSATPHYWGQGVMVTVSS
VL: DVVMTQTPASLSLAIGQPASISCKSSQSLLDTSRKTFLNWILQRPGQSPKRLIYQVSKLYSEVPDRFSGSGSETEFTLKISRVEAEDLGVYYCWQGTHFPDTFGAGTKLELK
notes: Rat clone; VH/VL only
B12: RNF43-180 (antibody, V domains shown)
VH: EAQLVESGGGLVRPGRSLKLTCAASGFTFSHYDMAWVRQAPARGLEWVASIGPGGGLTHYRDSVKGRFTVSRDHAESSLYLQMDSLRSEDTATYYCARHYGWSYFDYWGQGVMVTVSS
VL: DIQMTQSPSFLSASLGDSITITCHASQNIKGWLAWYQQKSGNAPELLIYTASGLRSGVPSRFSGSGSGTDYILTISNLQPEDFATYYCQHYQSFPNTFGAGTKLELR
notes: Rat clone; VH/VL only
B13: RNF43-129 (antibody, V domains shown)
VH: EVQLVESGGGLVQPGRSMKLSCAASGFTFSNYDMAWVRQAPKKGLEWVASITYDVSSTYYRDSVKGRFTISRDNAKSTLYLQMDSLRSEDTATYYCTTLDRAGYYYDGYGFYWFANWGQGTLVTVSS
VL: DIQMTQSPSSMSVSLGDTVTITCRASQDVKIYVNWFQQKPGKSPRQMIYRATNLADGVSSRFSGSRSGSDYLFTISSLESEDVADYHCLQYDEYPPTFGSGTKVEIK
notes: Rat clone; VH/VL only
B14: RNF43-107 (antibody, V domains shown)
VH: EVQPVESGGGLVQPGRSLKLSCPASGFTFSNYDMAWVRQAPTKGLEWVASISPSGGRTYYRDSVKGRFTISRDNSKSTLYLQMDSLRSEDTATFYCATHRYYSYFDFWGQGVMVTVSS
VL: DIQMTQSPASLSASLGETISIDCRTSEDIYNNLAWYQQKSGRSPQLLISATNRLQDGVPSRFSGSGSGTQYSLKISGMQPEDEGVYFCLQGSKYPYTFGTGTKLELK
notes: Rat clone; VH/VL only
B15: RNF43-117 (antibody, V domains shown)
VH: QVSLKESGPGMLQPSQTLSLTCTFSEFSLSTYGLGVGWIRQPSGKGLEWLANIWWDDDKYYNPSLKNRLTISKDTSNNQAFLKITNVDTADTATYYCARIDGRWHYFDYWGQGDRVIVSS
VL: DIVLTQTPSILSATIGQSVSISCRSTQSLLDSDGNTYLYWFLQRPGQSPQRLIYLVSNLGSGVPNRFSGSGSGTDFTLKISGVEAEDLGFYYCMQGAHTPLTFGSGTKLEIK
notes: Rat clone; VH/VL only
B16: RNF43-152 (antibody, V domains shown)
VH: QVTLKESGPGILQPSQTLSLTCTFSGSSLSTYGMGVGWIRQPSGKGLEWLANIWWDDDKYYNPSLKNRLTISKDTSNNQSFLKIANVDTADTATYYCARIDGTYNYFDYWGQGVMVTVSS
VL: DVVLTQTPSRLSATIGQSVSISCRSSQSLLDSYGNTYLSWFLQRPGQSPQRLIFLVSNLGSGVPNRVSGSGSGTDFTLKISGVEAEDLGVYYCMQTTHDPLTFGSGTKLEIK
notes: Rat clone; VH/VL only
B17: RNF43-201 (antibody, V domains shown)
VH: QVTLKEYGPGILQPSQTLSLTCTFSGFSLRTYGMGVGWIRQPSGKGLEWLTNIWWDDDKYYNPSLKNRLTISKDTSNNQAFLKITNVDTEDSATYYCARIDGTFNYFDYWGQGVMVTVSS
VL: DVVLTQTPSRLSATIGQSVSISCRSSQSLLDSDGNTYLYWFLQRPGQSPQRLIYLVSNLGSGVPNRVSGSGSGTDFTLKISGVEAEDLGIYYCLQATHAPLTFGSGTKLEIK
notes: Rat clone; VH/VL only
B18: RNF43-106 (antibody, V domains shown)
VH: QIQLGQSGPELTKPGESVKISCKASGYTFSDYPIHWVKQAPGKGLKWMGWINTYTGKPTFADDFKGRFVFSLEASASTANLQISNLKNEDTATYFCALGPISTVFYAMDAWGQGTSVTVSS
VL: DIQMTQSPSFLSASVGDRVTINCKASQNINKYLNWYQQKLGEAPKRLIYNTNNLQTGIPSRFSGSGSGTDYTLTISSLQPEDFATYFCLQHNSFPYTFGAGTKLELK
notes: Rat clone; VH/VL only
B19: RNF43-123 (antibody, V domains shown)
VH: QIQLVQSGPELKKPGESVKISCKASGYTFTDYPMHWVKQAPGKGLKWMGWINTYTGKPTYADDFKGRFVFSLEASANTANLQISNLKNDDTATYFCALGPISTVFYAVDAWGQGTSVTVSS
VL: DIQMTQSPSFLSASVGDRVTINCKASQNINKYLNWYQQKVGEAPKRLMYNTNNLQTGIPSRFSGSGSGTDYTLTISSLQPEDFATYFCLQHNSFPYTFGPGTELELK
notes: Rat clone; VH/VL only
B20: RNF43-210 (antibody, V domains shown)
VH: QIQLVQSGPELKKPEESVKISCKASGYIFTDYLIHWVKQAPGEGLKWMGWINTYTGKPTYADDFKGRFVFSLEASASTAILQISNLKNEDTATYFCALGPITTVVYVMDAWGQGTSVTVSS
VL: DIQMTQSPSFLSASVGDRVTINCKASQNINKYLNWYQQKLGEAPKRLIYNTNNLQTDIPSRFSGSGSGADYTLTINSLQPEDFATYFCLQHNSFPYTFGAGTKLELK
notes: Rat clone; VH/VL only

These binders were tested against T1, recombinant human RNF43 extracellular … (assay: SPR Biacore 8K; antibody captured on Protein A; RNF43 ECD analyte; 25 C).
Experimental: Antibodies were screened for binding to recombinant human RNF43 and ZNRF3 ECDs using a Biacore® 8 k instrument (GE Life Sciences). Briefly, antibodies diluted to 1 μg/ml in 1×HBSP buffer (Cytiva, BR100368) were captured on a Sensor Chip Protein A (GE Life Sciences) using a flow rate of 10 μl/minute and a contact time of 60 seconds. Binding of recombinant human RNF43 and ZNRF3 extracellular domain to the captured antibodies was analyzed at 25° C. using a single cycle kinetics method with a flow rate of 30 μl/minute, a contact time of 180 seconds and a dissociation time of 600 seconds. The concentration of recombinant human RNF43 and ZNRF3 extracellular domain in the single cycle kinetics were 0, 0.8, 4, 20, and 100 nM. Between cycles, the chip was regenerated using 10 mM Glycine HCl pH 1.5 injected for 30 seconds at 30 μl/minute. Data were evaluated using Biacore 8K Evaluation software (GE Life Sciences). Kinetic constants were obtained using a 1:1 binding model with the parameter RI set to zero. Cell surface ligase antibodies with sub-nanomolar affinities may provide advantages in certain instances, for example, in the degradation efficiency which is correlated with the durability of the ternary complex as shown in FIG. 5D.

In order of rising Kd:
1. B1  0.209 nM
2. B14  0.341 nM
3. B5  0.539 nM
4. B6  0.58 nM
5. B2  0.584 nM
6. B13  1.17 nM
7. B4  1.36 nM
8. B8  1.49 nM
9. B7  1.75 nM
10. B12  2.81 nM
11. B3  5.71 nM
12. B17  9.9 nM
13. B19  13.4 nM
14. B20  13.4 nM
15. B18  15.6 nM
16. B16  17.8 nM
17. B15  19.8 nM
18. B10  31.7 nM
19. B11  51.6 nM
20. B9  76 nM
